Source: patent US20250262210A1 (TRUSTEES OF COLUMBIA UNIVERSITY IN THE CITY OF NEW YORK, published 2025)

Experiments:
Test in all cases: IP/MS, LZTR1 R810W-FLAG, U87
RUSC2 = RUSC2 (human, UniProt Q8N2Y8 1-1516)
Summary of the method: (§1)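 Read-out: spectral counts from LC-MS/MS (Orbitrap Fusion) after MaxQuant identification. Variable modifications were Met oxidation, protein N-terminal acetylation and N/Q deamidation.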

ANKRD52 = biological target: T1, ANKRD52 (human, UniProt Q8NB46 1-1076)
T1 sequence (looked up): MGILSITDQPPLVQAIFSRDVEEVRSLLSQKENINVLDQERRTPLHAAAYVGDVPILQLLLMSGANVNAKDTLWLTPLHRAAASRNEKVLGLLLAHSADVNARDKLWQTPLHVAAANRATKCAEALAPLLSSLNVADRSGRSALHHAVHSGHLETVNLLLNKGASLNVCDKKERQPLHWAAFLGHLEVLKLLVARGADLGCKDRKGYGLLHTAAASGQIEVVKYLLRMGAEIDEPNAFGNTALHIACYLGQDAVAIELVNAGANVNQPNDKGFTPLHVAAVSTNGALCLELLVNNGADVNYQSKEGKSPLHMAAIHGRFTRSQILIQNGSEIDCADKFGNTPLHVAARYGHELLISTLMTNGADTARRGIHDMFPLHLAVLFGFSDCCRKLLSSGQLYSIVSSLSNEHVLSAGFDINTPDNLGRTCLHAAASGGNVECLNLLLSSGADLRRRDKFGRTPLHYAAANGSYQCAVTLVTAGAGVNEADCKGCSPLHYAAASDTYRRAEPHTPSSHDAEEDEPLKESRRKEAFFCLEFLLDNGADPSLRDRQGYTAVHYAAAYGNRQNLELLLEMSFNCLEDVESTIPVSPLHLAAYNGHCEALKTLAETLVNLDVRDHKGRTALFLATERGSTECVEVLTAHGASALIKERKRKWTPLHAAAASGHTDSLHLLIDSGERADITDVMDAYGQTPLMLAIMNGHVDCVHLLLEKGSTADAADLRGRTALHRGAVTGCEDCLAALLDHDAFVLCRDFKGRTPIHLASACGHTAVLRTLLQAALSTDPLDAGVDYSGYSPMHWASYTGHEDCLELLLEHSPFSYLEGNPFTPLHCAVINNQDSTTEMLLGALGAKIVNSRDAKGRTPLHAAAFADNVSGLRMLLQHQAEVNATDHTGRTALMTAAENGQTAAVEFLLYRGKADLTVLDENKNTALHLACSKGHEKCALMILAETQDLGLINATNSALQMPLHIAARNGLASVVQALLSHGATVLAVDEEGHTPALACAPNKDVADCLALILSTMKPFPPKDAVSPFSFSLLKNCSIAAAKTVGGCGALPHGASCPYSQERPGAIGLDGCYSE
Summary of the method: as §1

STK11IP = biological target: T2, STK11IP (human, UniProt Q8N1F8 1-1088)
T2 sequence (looked up): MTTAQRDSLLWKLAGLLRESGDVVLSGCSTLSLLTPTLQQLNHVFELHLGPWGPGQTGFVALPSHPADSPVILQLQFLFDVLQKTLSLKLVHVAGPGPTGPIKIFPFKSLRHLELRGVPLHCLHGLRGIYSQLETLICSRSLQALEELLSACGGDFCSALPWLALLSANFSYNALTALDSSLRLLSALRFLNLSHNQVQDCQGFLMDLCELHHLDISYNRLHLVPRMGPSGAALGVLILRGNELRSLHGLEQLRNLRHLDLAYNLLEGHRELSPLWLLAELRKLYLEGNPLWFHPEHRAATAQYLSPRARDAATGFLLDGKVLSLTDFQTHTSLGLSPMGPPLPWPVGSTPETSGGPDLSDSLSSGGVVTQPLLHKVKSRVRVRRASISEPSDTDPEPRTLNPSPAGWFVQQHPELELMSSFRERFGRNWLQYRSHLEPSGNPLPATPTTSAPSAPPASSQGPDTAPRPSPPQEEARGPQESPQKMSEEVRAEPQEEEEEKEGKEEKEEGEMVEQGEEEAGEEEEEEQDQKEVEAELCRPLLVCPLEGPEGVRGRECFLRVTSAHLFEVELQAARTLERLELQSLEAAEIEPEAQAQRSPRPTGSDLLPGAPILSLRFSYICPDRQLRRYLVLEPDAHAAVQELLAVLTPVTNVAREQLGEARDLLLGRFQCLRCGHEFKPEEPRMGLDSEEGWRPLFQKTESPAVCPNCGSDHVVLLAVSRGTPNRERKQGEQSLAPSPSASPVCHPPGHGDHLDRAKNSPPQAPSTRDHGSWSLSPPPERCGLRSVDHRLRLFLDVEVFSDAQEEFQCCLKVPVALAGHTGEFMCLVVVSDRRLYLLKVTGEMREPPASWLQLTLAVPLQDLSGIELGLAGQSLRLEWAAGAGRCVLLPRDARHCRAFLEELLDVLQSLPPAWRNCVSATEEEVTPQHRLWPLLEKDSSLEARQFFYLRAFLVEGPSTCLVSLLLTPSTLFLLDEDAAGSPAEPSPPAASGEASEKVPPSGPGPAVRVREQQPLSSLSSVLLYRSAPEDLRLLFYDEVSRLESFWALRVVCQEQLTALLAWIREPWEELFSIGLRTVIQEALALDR
Summary of the method: as §1

Measured: binding result

RUSC2, sequence (Q8N2Y8 whole entry, the tested form may be a part): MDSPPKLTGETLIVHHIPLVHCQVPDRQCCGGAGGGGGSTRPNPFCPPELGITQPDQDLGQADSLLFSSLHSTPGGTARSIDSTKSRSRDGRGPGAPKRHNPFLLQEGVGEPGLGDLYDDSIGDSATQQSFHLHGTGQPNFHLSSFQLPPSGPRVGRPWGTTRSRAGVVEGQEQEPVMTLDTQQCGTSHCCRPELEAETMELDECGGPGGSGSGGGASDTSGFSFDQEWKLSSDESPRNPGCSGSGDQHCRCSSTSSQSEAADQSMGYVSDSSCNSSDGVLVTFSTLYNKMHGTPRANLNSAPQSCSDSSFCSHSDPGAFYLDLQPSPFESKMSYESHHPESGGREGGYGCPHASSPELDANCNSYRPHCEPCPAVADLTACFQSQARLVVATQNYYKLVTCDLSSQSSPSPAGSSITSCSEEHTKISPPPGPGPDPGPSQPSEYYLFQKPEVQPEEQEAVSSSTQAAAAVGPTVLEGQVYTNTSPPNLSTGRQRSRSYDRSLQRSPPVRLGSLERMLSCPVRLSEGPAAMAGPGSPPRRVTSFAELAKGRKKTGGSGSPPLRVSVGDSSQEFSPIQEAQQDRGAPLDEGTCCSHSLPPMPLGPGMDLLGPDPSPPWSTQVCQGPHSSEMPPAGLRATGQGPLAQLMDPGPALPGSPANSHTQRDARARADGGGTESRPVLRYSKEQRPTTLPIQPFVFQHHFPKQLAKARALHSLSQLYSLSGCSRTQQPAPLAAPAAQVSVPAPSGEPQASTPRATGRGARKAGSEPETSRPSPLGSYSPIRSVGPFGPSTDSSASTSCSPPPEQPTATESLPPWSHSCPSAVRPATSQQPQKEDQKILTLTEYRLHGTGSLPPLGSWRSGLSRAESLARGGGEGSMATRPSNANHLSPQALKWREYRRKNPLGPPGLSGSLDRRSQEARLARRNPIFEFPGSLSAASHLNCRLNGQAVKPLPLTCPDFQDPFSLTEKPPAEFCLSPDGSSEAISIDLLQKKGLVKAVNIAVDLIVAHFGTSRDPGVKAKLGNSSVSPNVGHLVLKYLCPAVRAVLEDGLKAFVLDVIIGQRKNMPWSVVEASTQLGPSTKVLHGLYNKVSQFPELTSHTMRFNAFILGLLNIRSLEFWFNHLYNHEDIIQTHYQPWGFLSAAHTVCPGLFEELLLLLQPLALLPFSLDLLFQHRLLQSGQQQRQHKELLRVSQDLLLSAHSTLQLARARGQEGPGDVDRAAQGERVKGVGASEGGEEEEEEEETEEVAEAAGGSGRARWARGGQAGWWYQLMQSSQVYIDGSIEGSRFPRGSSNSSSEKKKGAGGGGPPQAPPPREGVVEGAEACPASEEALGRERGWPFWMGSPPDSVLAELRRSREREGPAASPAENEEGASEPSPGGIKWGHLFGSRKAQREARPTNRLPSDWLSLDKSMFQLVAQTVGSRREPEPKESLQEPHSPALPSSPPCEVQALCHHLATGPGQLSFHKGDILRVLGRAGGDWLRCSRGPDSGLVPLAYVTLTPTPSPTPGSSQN

B1: LZTR1 R810W-FLAG (other, human, UniProt Q8N653 1-840, looked up)
chain: MAGPGSTGGQIGAAALAGGARSKVAPSVDFDHSCSDSVEYLTLNFGPFETVHRWRRLPPCDEFVGARRSKHTVVAYKDAIYVFGGDNGKTMLNDLLRFDVKDCSWCRAFTTGTPPAPRYHHSAVVYGSSMFVFGGYTGDIYSNSNLKNKNDLFEYKFATGQWTEWKIEGRLPVARSAHGATVYSDKLWIFAGYDGNARLNDMWTIGLQDRELTCWEEVAQSGEIPPSCCNFPVAVCRDKMFVFSGQSGAKITNNLFQFEFKDKTWTRIPTEHLLRGSPPPPQRRYGHTMVAFDRHLYVFGGAADNTLPNELHCYDVDFQTWEVVQPSSDSEVGGAEVPERACASEEVPTLTYEERVGFKKSRDVFGLDFGTTSAKQPTQPASELPSGRLFHAAAVISDAMYIFGGTVDNNIRSGEMYRFQFSCYPKCTLHEDYGRLWESRQFCDVEFVLGEKEECVQGHVAIVTARSRWLRRKITQARERLAQKLEQEAAPVPREAPGVAAGGARPPLLHVAIREAEARPFEVLMQFLYTDKIKYPRKGHVEDVLLIMDVYKLALSFQLCRLEQLCRQYIEASVDLQNVLVVCESAARLQLSQLKEHCLNFVVKESHFNQVIMMKEFERLSSPLIVEIVRRKQQPPPRTPLDQPVDIGTSLIQDMKAYLEGAGAEFCDITLLLDGHPRPAHKAILAARSSYFEAMFRSFMPEDGQVNISIGEMVPSRQAFESMLRYIYYGEVNMPPEDSLYLFAAPYYYGFYNNRLQAYCKQNLEMNVTVQNVLQILEAADKTQALDMKRHCLHIIVHQFTKVSKLPTLWSLSQQLLLDIIDSLASHISDKQCAELGADI
notes: Stably expressed in U87 cells by lentivirus; also called LZTR1-FLAG-R810W; LZTR1 RW; not shown: FLAG tag
binds: all assays above
